This is an account of results in patent US20240132578A1.

Where only a bound is given, the exact number is not on record here.

Common to all, as to assay: cell-based or functional assay
Experiment [1] addresses HIV-1 CMU02 envelope glycoprotein (Env), clade AE pseudovirus (HIV-1).
The target of experiment [2] is HIV-1 MGRM-C-027 envelope glycoprotein (Env), clade C pseudovirus (HIV-1).
Experiment [3] addresses HIV-1 MGRM-C-028 envelope glycoprotein (Env), clade C pseudovirus (HIV-1).
The target of experiment [4] is HIV-1 93UG077 Env (HIV-1 isolate 93UG077 (clade A)).
For experiment [5], the target named is HIV-1 92BR020 Env (HIV-1 isolate 92BR020 (clade B)).
The target in experiment [6] is HIV-1 Env of pseudovirus ZM233 (HIV-1).
Experiment [7] has as its target HIV-1 Env of pseudovirus 92UG001 (HIV-1).
Experiment [8] deals with HIV-1 Env of isolate MG RM-D-021 (subtype D) (HIV-1).
Experiment [9] addresses HIV-1 envelope glycoprotein (Env) of isolate MG RM-A-004 (HIV-1).
Experiment [10] deals with HIV-1 Env of isolate MGRM-F1-008 (subtype F) (HIV-1).
The target of experiment [11] is HIV-1 Env of isolate APV_13 (subtype B), on pseudovirus (HIV-1).
Experiment [12] deals with HIV-1 92UG024 envelope glycoprotein (Env) on virus (HIV-1, clade D, isolate 92UG024).
In experiment [13] the target is HIV-1 92TH021 envelope glycoprotein (Env) on virus (HIV-1, clade AE, isolate 92TH021).
Experiment [14] concerns the target HIV-1 JR-CSF Env N241A (HIV-1 (isolate JR-CSF)) (UniProt P20871).
The target of experiment [15] is HIV-1 JR-CSF Env R315A (HIV-1 (isolate JR-CSF, clade B)) (UniProt P20871).
For experiment [16], the target named is HIV-1 92RW020 envelope glycoprotein (Env) (HIV-1).
Experiment [17] has as its target HIV-1 92UG005 envelope glycoprotein (Env) (HIV-1).
Experiment [18] has as its target HIV-1 CMU02 envelope glycoprotein (Env) (HIV-1).
In experiment [19] the target is HIV-1 MGRM-C-026 envelope glycoprotein (Env) (HIV-1).
The target of experiment [20] is HIV-1 JRFL envelope glycoprotein (Env) (HIV-1).
Experiment [21] deals with HIV-1 envelope glycoprotein (Env) of isolate NL43 (HIV-1).
Experiment [22] has as its target HIV-1 envelope glycoprotein (Env) of isolate MGRM-C-026 (HIV-1).
Experiment [23] has as its target HIV-1 envelope glycoprotein (Env) of isolate 92RW020 (HIV-1).
Experiment [24] addresses HIV-1 envelope glycoprotein (Env) of isolate MGRM-D-018 (HIV-1).
The target of experiment [25] is HIV-1 JRCSF Env (pseudovirus) (HIV-1) (UniProt P20871).
Experiment [26] addresses HIV-1 APV17 Env (pseudovirus) (HIV-1).
Experiment [27] addresses HIV-1 92UG024 Env (pseudovirus) (HIV-1).
The target of experiment [28] is HIV-1 Env of isolate MGRM-C-028 (clade C) (HIV-1).
Experiment [29] concerns the target HIV-1 Env of isolate MGRM-A-010 (clade A) (HIV-1).
The target in experiment [30] is HIV-1 Env of isolate NL43 (clade B) (HIV-1).
The target of experiment [31] is HIV-1 Env of isolate 92UG024 (clade D) (HIV-1).

5329_C19 (PGT-136) (antibody), sequence (VH): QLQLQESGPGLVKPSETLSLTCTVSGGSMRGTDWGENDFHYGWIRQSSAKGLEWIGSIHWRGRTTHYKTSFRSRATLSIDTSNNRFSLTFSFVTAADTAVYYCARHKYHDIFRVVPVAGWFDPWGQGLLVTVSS
5329_C19 (PGT-136) (antibody), sequence (VL): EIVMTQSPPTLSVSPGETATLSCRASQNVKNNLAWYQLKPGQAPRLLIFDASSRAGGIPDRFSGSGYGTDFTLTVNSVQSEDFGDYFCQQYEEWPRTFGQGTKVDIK
1443_C16 (PG16) (TCN-116) (antibody), sequence (VH): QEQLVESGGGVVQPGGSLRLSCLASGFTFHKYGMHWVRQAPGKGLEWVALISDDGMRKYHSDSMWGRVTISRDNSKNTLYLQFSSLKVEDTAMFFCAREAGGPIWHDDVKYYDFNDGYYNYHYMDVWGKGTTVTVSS
1443_C16 (PG16) (TCN-116) (antibody), sequence (VL): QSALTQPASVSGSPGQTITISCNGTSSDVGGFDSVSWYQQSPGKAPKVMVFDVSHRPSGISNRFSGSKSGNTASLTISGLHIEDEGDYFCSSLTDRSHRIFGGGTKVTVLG

On to 4858_P08 (PGT-123) (antibody), for which, in experiment [1], the IC50, pseudovirus neutralization was over 10 µg/mL; the IC80 (pseudovirus neutralization) was over 10 µg/mL; the IC90 (pseudovirus neutralization) was over 10 µg/mL; the IC95 (pseudovirus neutralization) was over 10 µg/mL. In experiment [2], this substance showed an IC50, pseudovirus neutralization of 0.0169 µg/mL; an IC80 (pseudovirus neutralization) of 0.149 µg/mL; an IC90 (pseudovirus neutralization) of over 10 µg/mL; an IC95 (pseudovirus neutralization) of over 10 µg/mL. In experiment [3], this substance yielded an IC50, pseudovirus neutralization of 0.443 µg/mL; an IC80 (pseudovirus neutralization) of 2.8 µg/mL; an IC90 (pseudovirus neutralization) of 7.11 µg/mL; an IC95 (pseudovirus neutralization) of over 10 µg/mL.

In experiment [4], 4838_L06 (PGT-121) (antibody) yielded a Neutralization IC90 of 0.369 µg/mL and a Neutralization IC95 of 0.74 µg/mL. Also, in experiment [5], the Neutralization IC80 turned out to be 0.0532 µg/mL and the Neutralization IC90 is 0.101 µg/mL.

In the case of 1443_C16 (PG16) (TCN-116) (antibody), the IC50, pseudovirus neutralization (TZM-bl assay) in experiment [6] is under 0.01 µg/mL.

For PGV04 (antibody), in experiment [7], the IC50, pseudovirus neutralization was found to be 0.553 µg/mL. The results for the IC50 (µg/mL), pseudovirus neutralization in experiment [8] and in experiment [10] were over 50 µg/mL and 1.03 µg/mL, respectively. Also, the IC50 in [9] came out at 0.175 µg/mL. In experiment [11], the IC50, single-round pseudovirus neutralization was 1.23 µg/mL.

In [12], 4877_D15 (PGT-122) (antibody) yielded a Neutralization IC80 of over 10 µg/mL, a Neutralization IC90 of over 10 µg/mL, a Neutralization IC95 of over 10 µg/mL and a neutralization IC50 of over 10 µg/mL. In [13], this substance showed a Neutralization IC80 of over 10 µg/mL, a Neutralization IC90 of over 10 µg/mL, a Neutralization IC95 of over 10 µg/mL and a neutralization IC50 of over 10 µg/mL.

As for 5343_B08 (PGT-135) (antibody), the values for the Fold IC50 increase relative to wild-type in [14] and in experiment [15] were 0.1 fold and 1.8 fold, respectively.

For the substance 5329_C19 (PGT-136) (antibody), the Neutralization IC80 in experiment [16] was over 10 µg/mL; in experiment [17] it was over 10 µg/mL; in [18], over 10 µg/mL; in [19] it was 0.0285 µg/mL; in experiment [20] it was over 10 µg/mL. Besides, the Neutralization IC90 in experiment [16] was over 10 µg/mL; in [17] it was over 10 µg/mL; in [18], over 10 µg/mL; in [19] it was 0.0687 µg/mL; in [20] it was over 10 µg/mL. In addition, the Neutralization IC95 in experiment [16] is over 10 µg/mL; in experiment [17], over 10 µg/mL; in [18] it was over 10 µg/mL; in [19], 0.159 µg/mL; in experiment [20], over 10 µg/mL. The neutralization IC50 is 0.738 µg/mL in experiment [16]; over 10 µg/mL in experiment [17]; over 10 µg/mL in experiment [18]; 0.0065 µg/mL in [19]; over 10 µg/mL in experiment [20].

In [21], 5141_B17 (PGT-126) (antibody) displayed a Neutralization IC80 of over 10 µg/mL, a Neutralization IC90 of over 10 µg/mL, a Neutralization IC95 of over 10 µg/mL and a neutralization IC50 of over 10 µg/mL. In [22], this substance returned a Neutralization IC80 of 0.0345 µg/mL, a Neutralization IC90 of 0.0831 µg/mL, a Neutralization IC95 of 0.185 µg/mL and a neutralization IC50 of 0.0076 µg/mL. In [23], this substance registered a Neutralization IC80 of 0.0168 µg/mL, a Neutralization IC90 of 0.0359 µg/mL, a Neutralization IC95 of 0.0728 µg/mL and a neutralization IC50 of 0.0046 µg/mL. Also, in [24], the Neutralization IC80 is 0.0391 µg/mL, the Neutralization IC90 was 0.0918 µg/mL, the Neutralization IC95 worked out at 0.205 µg/mL and the neutralization IC50 was 0.0093 µg/mL.

In [25], 5123_A06 (PGT-125) (antibody) gave a Neutralization by PGT-125, IC50 of 0.006 µg/mL; a Neutralization by PGT-125, IC80 of 0.0196 µg/mL; a Neutralization by PGT-125, IC90 of 0.0392 µg/mL; a Neutralization by PGT-125, IC95 of 0.0741 µg/mL. In experiment [26], this substance returned a Neutralization by PGT-125, IC50 of 7.31 µg/mL; a Neutralization by PGT-125, IC80 of over 10 µg/mL; a Neutralization by PGT-125, IC90 of over 10 µg/mL; a Neutralization by PGT-125, IC95 of over 10 µg/mL. Also, in [27], the Neutralization by PGT-125, IC50 is over 10 µg/mL; the Neutralization by PGT-125, IC80 is over 10 µg/mL; the Neutralization by PGT-125, IC90 was over 10 µg/mL; the Neutralization by PGT-125, IC95 was over 10 µg/mL.

Consider 1496_C09 (PG9) (TCN-109) (antibody), for which, in experiment [28], the Neutralization IC80 is 0.645 µg/mL, the Neutralization IC90 was 1.65 µg/mL, the Neutralization IC95 turned out to be 3.71 µg/mL and the neutralization IC50 turned out to be 0.121 µg/mL. In addition, in experiment [29], the Neutralization IC80 is 0.121 µg/mL, the Neutralization IC90 was determined as 0.242 µg/mL, the Neutralization IC95 stood at 0.456 µg/mL and the neutralization IC50 was determined as 0.0375 µg/mL. In experiment [30], the neutralization IC50 was determined as 0.687 µg/mL. The substance also had a neutralization IC50 in [31] of 1.91 µg/mL.

What is called IC50 is the concentration needed to halve the response being measured.
